Assay results published in US12018066 (TRIAD NATIONAL SECURITY, dated 2024).
Several values for one entry are separate records, joined by “and”; a condition that tells them apart may be missing. Equal values may be shown once. Read-outs that look alike come from different tables or passages of the source.

Experiments:
[1] = biological target: T1, SARS-CoV-2 spike protein receptor binding domain (RBD2) (SARS-CoV-2, UniProt P0DTC2 319-537); test: SPR
[2] = biological target: T1, SARS-CoV-2 spike protein receptor …; test: SPR sandwich binning, ligand E01
[3] = biological target: T1, SARS-CoV-2 spike protein receptor …
[4] = biological target: T1, SARS-CoV-2 spike protein receptor …; test: SPR sandwich binning, ligand F07
[5] = biological target: T1, SARS-CoV-2 spike protein receptor …; test: SPR sandwich binning, ligand H05
[6] = biological target: T1, SARS-CoV-2 spike protein receptor …; test: SPR sandwich binning, ligand G07
[7] = biological target: T1, SARS-CoV-2 spike protein receptor …; test: SPR sandwich binning, ligand H01
[8] = biological target: T1, SARS-CoV-2 spike protein receptor …; test: SPR sandwich binning, ligand B04
[9] = biological target: T1, SARS-CoV-2 spike protein receptor …; test: SPR sandwich binning, ligand CR3022
[10] = biological target: T1, SARS-CoV-2 spike protein receptor …; test: SPR sandwich binning, ligand E08
[11] = biological target: T1, SARS-CoV-2 spike protein receptor …; test: SPR sandwich binning, ligand S01
[12] = biological target: T1, SARS-CoV-2 spike protein receptor …; test: SPR, immobilized antibody, RBD injected, 1:1 fit
[13] = biological target: T1, SARS-CoV-2 spike protein receptor …; test: SPR sandwich binning, ligand Anti-His
[14] = biological target: SARS-CoV-2 spike protein on whole SARS-CoV-2 virus (SARS-CoV-2, UniProt P0DTC2 14-1273); test: cell-based or functional assay
[15] = biological target: T2, human ACE2 receptor on HEK cells (Human ACE2 293 cell line) (human, UniProt Q9BYF1 18-805); test: fluorescence microscopy, PE-labelled IgG on HEK-ACE2 cells without RBD2-sfGFP
T2 construct: whole, on cells; also called HEK-ACE2; ACE2 293 cells

[16] = biological target: T1, SARS-CoV-2 spike protein receptor …; test: SPR, IgG
[17] = biological target: T1, SARS-CoV-2 spike protein receptor …; test: SPR sandwich binning, ligand NN54
[18] = biological target: T1, SARS-CoV-2 spike protein receptor …; remark: listed apart in the source
[19] = biological target: SARS-CoV spike protein receptor binding domain (RBD1) (SARS-CoV, UniProt P59594 306-527); test: ELISA, minibodies (FIG. 6)
[20] = biological target: T1, SARS-CoV-2 spike protein receptor …; remark: listed apart in the source

T2 sequence (Q9BYF1 18-805): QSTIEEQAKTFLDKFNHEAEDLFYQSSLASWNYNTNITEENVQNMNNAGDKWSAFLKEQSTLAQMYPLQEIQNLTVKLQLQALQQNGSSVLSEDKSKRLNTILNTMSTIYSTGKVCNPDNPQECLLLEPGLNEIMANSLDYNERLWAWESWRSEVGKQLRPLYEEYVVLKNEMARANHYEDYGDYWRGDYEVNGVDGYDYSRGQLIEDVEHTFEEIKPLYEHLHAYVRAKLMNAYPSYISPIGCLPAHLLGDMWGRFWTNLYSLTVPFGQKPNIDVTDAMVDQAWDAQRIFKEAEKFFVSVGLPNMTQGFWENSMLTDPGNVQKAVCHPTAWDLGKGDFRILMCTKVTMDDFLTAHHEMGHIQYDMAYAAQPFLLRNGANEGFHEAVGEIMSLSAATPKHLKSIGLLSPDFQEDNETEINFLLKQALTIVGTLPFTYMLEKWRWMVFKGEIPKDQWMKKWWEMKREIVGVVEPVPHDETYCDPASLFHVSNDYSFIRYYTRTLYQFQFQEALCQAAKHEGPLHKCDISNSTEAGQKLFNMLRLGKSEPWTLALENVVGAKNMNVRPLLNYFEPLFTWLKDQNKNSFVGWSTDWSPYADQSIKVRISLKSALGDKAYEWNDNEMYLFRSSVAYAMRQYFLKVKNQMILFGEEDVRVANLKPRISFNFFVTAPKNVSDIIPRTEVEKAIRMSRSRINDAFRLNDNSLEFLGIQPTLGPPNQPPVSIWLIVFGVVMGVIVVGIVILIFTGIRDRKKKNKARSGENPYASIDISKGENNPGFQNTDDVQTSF

B1: H01 IgG1 (antibody, V domains shown)
VH: QVTLKESGPVLVKPTETLTLTCTVSGFSLSNARMGVSWIRQPPGKALEWLAHIFSNGEKSYSTSLKSRLTISKDTSKSQVVLTMTNMDPVDTATYYCARTLDYYDSSGYLVGGAFDIWGQGTMVTVSS
VL: QPGLTQPPSVSLAPGQTARITCGGNNIGSKSVHWYQQKPGQAPVLVVYDDSDRPSGIPERFSGSNAGNTATLTISRVEAGDEADYYCQVWDSRSDQYVFGTRTKLTVL
notes: also called H1
In the case of B1, the Kd [1] is reported as 800 nM, the “normalized analyte binding to RBD2 held by the immobilized ligand” value (from here on “normalized analyte binding to RBD2 held”) [2] is reported as 0.41 and the Kd [3] is reported as 721 nM. The “normalized analyte binding to RBD2 held” value [4] was 0.03, the “normalized analyte binding to RBD2 held” value [5] was -0.05 and the “normalized analyte binding to RBD2 held” value [6] was 1.28. The “normalized analyte binding to RBD2 held” value [7] was -0.03, the “normalized analyte binding to RBD2 held” value [8] was 0.77 and the “normalized analyte binding to RBD2 held” value [9] was -0.05. The “normalized analyte binding to RBD2 held” value [10] was -0.03, the “normalized analyte binding to RBD2 held” value [11] was -0.11 and the Kd [12] was 800 nM. For the same binder, the “normalized analyte binding to RBD2 held” value [13] was 1.75, the “NT50 (nM), half neutralization titer” value [14] was 69.6 nM and the “Nmax (%), neutralization maximum” value [14] was 87.7%.

B2: G07 IgG1 (antibody, V domains shown)
VH: QVQLVQSGAEVKKPGESLKISCKGSGYSFTSYWIGWVRQMPGKGLEWMGIIYPGDSDIRYSPSFQGQVTISADKSFSSAYLQWSSLKASDTAMYYCARLGATGAFDIWGQGTTVTVSS
VL: QSVLIQPPSASGTPGQRVTISCSGSNSNFGSNSVSWYQQRPGTAPKLLIEGNNQRPSGVPERFSGSKSGTSASLAISGLQSEDEAEYSCASWDDSLNAFVFGPGTKLTVL
For B2, the Kd [1] was 320 nM, the binding result [15] was “no binding (tested: 1 ug/mL)” and the “normalized analyte binding to RBD2 held” value [2] was 1.57. The Kd [16] was 2000 nM, the “normalized analyte binding to RBD2 held” value [4] was 0.08 and the “normalized analyte binding to RBD2 held” value [5] was 1.03. For the same binder, the “normalized analyte binding to RBD2 held” value [6] was -0.05, the “normalized analyte binding to RBD2 held” value [17] was 1.73 and the “normalized analyte binding to RBD2 held” value [7] was 0.94. For the same binder, the “normalized analyte binding to RBD2 held” value [8] was -0.03, the “normalized analyte binding to RBD2 held” value [9] was 1.56 and the “normalized analyte binding to RBD2 held” value [10] was 1.86. For the same binder, the Kd [18] was 246 nM, the Kd [12] was 320 nM and the “normalized analyte binding to RBD2 held” value [13] was 0.92.

B3: F07 minibody (scFv-Fc) (Fc fusion)
chain: SYVLTQPPSVSVAPGQTARITCGGNNIGSKSVHWYQQKPGQAPVLVVYDDSDRPSGIPERFSGSNSGNTATLIISRVEAGDEADYYCQVWDSSSVHYVFGTGTKLTVLSGGSTITSYNVYYTKLSSSGTQVQLVQSGAEVKKPGSSVRVSCKVSGYTFTGYYMHWVRQAPGQGLEWMGIINPSGGSTSYAQKFQGRVTMTRDTSTSTVYMELSSLRSEDTAVYYCARVRVGASDAFDIWGQGTMVTVSS
B3 was tested, and the binding result [19] was “no binding”, the Kd [1] was 61.5 nM and the Kd [12] was 61.5 nM.

B4: E01 IgG1 (antibody, V domains shown)
VH: QVQLQQWGAGLLKPSETLSLKCAVYGGSFSGYYWGWIRQSTGKGLEWIGEINRSGSTNYNPSLKSRVTISVDTSKNQFSLKLSSVTAADTAVYYCARGGARYYYGSGSYRSTPRPYYFDYWGQGTLVTVSS
VL: SYELTQPPSVSVAPGETARITCGGDNIGRRHVHWYQQKPGQAPVLVIYDDSDRPSGIPDRFSGSNSGNTATLTIGRVEAGDEADYYCQVWGSSNDPHVFGTGTKLTVL
notes: also called E1
For B4, the Kd [1] was 90 nM, the “normalized analyte binding to RBD2 held” value [2] was -0.07 and the Kd [16] was 48 nM. The “normalized analyte binding to RBD2 held” value [4] was 0.62, the “normalized analyte binding to RBD2 held” value [5] was 2.18 and the “normalized analyte binding to RBD2 held” value [6] was 2.43. For the same binder, the “normalized analyte binding to RBD2 held” value [17] was 2.78, the “normalized analyte binding to RBD2 held” value [7] was 2.35 and the “normalized analyte binding to RBD2 held” value [8] was -0.09. The “normalized analyte binding to RBD2 held” value [9] was 2.39, the “normalized analyte binding to RBD2 held” value [10] was 2.33 and the Kd [18] was 90 nM. The “normalized analyte binding to RBD2 held” value [11] was 0.03, the Kd [12] was 90 nM and the “normalized analyte binding to RBD2 held” value [13] was 2. For the same binder, the “NT50 (nM), half neutralization titer” value [14] was 6.4 nM and the “Nmax (%), neutralization maximum” value [14] was 104%.

B5: S01 minibody (scFv-Fc) (Fc fusion)
chain: EIVMTQSPSSLSASVGDSVTITCQASQDISNYLNWYQQKPGKAPKLLIYDASNLETGVPSRFSGGGSGTDFTLTITSLQPEDIATYYCQQYDNFPPTFGPGTKVDIKSGGSTITSYNVYYTKLSSSDTQVQLVESGGGLVKPGGSLRLSCAASGFTVGSNYMSWVRQAPGKGLEWVSVIYSGGSTYYADSVKGRFTISRDNSKNTLYLQMNSLRAEDTAVYYCARGSSGAWYFDLWGRGTLVTVSS
notes: also called 501
For B5, the binding result [19] was “no binding” and the Kd [1] was 22700 nM.

B6: E01 minibody (scFv-Fc) (Fc fusion)
chain: SYELTQPPSVSVAPGETARITCGGDNIGRRHVHWYQQKPGQAPVLVIYDDSDRPSGIPDRFSGSNSGNTATLTIGRVEAGDEADYYCQVWGSSNDPHVFGTGTKLTVLSGGSTITSNNVYYTKLSSSGTQVQLQQWGAGLLKPSETLSLKCAVYGGSFSGYYWGWIRQSTGKGLEWIGEINRSGSTNYNPSLKSRVTISVDTSKNQFSLKLSSVTAADTAVYYCARGGARYYYGSGSYRSTPRPYYFDYWGQGTLVTVSS
notes: also called E1
B6 was tested, and the binding result [19] was “no binding”, the Kd [1] was 21.5 nM and the Kd [12] was 21.5 nM.

B7: B04 IgG1 (antibody, V domains shown)
VH: QVQLVESGAEVKKPGASVKVSCKASGYTFTRYYMHWVRQAPGQGLEWMGIINPSGGTTSYAQKFQGRVTMTRDTSTSTVYMELSSLRSEDTAVYYCARSFGELTSFDYWGQGTLVTVSS
VL: SYVLTQPPSVSVAPGKTARITCGGNNIGIRSVHWYQQKPGQAPVLVIYYDSDRPSGIPERFSGSKSGNTATLTISRVEAGDEADYYCQVWDSSSDHPVFGGGTKLTVL
In the case of B7, the Kd [20] is reported as 208 nM, the Kd [1] is reported as 210 nM and the binding result [15] is reported as “no binding (tested: 1 ug/mL)”. The “normalized analyte binding to RBD2 held” value [2] was -0.15, the Kd [16] was 100 nM and 300 nM and the “normalized analyte binding to RBD2 held” value [4] was 0.05. The “normalized analyte binding to RBD2 held” value [5] was 1.87, the “normalized analyte binding to RBD2 held” value [6] was -0.07 and the “normalized analyte binding to RBD2 held” value [17] was 2.5. For the same binder, the “normalized analyte binding to RBD2 held” value [7] was 0.71, the “normalized analyte binding to RBD2 held” value [8] was -0.11 and the “normalized analyte binding to RBD2 held” value [9] was 2.22. For the same binder, the “normalized analyte binding to RBD2 held” value [10] was 2.24, the “normalized analyte binding to RBD2 held” value [11] was -0.59 and the Kd [12] was 210 nM. For the same binder, the “normalized analyte binding to RBD2 held” value [13] was 1.68, the “NT50 (nM), half neutralization titer” value [14] was 56.7 nM and the “Nmax (%), neutralization maximum” value [14] was 53.3%.

B8: E08 IgG1 (antibody, V domains shown)
VH: QVQLVQSGAEVKKPGSSVKVSCKASGGTFSSYAISWVRQAPGQGLEWMGGIIPIFGTANYAQKFQGRVTITADESTSTAYMELSSLRSEDTAVYYCARASGRWLQFWHYYGMDVWGQGTTVTVSS
VL: SYVLTQPPSVSVAPGKTARITCGGNNIGWKSVHWYQQKPGQAPVLVVYDDSDRPSGIPERFSGSNSGNTATLTISRVEAGDEADYYCQVWDSSSDLVVFGGGTKLTVL
B8 was tested, and the Kd [1] was 27 nM, the “normalized analyte binding to RBD2 held” value [2] was 2.15 and the Kd [3] was 26 nM. For the same binder, the “normalized analyte binding to RBD2 held” value [4] was 1.32, the “normalized analyte binding to RBD2 held” value [5] was -0.11 and the “normalized analyte binding to RBD2 held” value [6] was 2.62. The “normalized analyte binding to RBD2 held” value [7] was 0.13, the “normalized analyte binding to RBD2 held” value [8] was 2.12 and the “normalized analyte binding to RBD2 held” value [9] was -0.08. The “normalized analyte binding to RBD2 held” value [10] was -0.09, the “normalized analyte binding to RBD2 held” value [11] was 1.85 and the Kd [12] was 27 nM. For the same binder, the “normalized analyte binding to RBD2 held” value [13] was 1.81, the “NT50 (nM), half neutralization titer” value [14] was 52.9 nM and the “Nmax (%), neutralization maximum” value [14] was 70.4%.
